{
  "source": "patent US20020009436A1",
  "about": "“Methods and compositions for inhibiting adhesion by microorganisms” (priority 1999, published 2002)",
  "molecules": {"B1": {"name": "asparaginase: enzyme that catalyzes hydrolysis of the side chain amide group of asparagine to a carboxyl group; E. coli asparaginase (protein, UniProt P00805 23-348, looked up)", "L-asparaginase 2": "LPNITILATGGTIAGGGDSATKSNYTVGKVGVENLVNAVPQLKDIANVKGEQVVNIGSQDMNDNVWLTLAKKINTDCDKTDGFVITHGTDTMEETAYFLDLTVKCDKPVVMVGAMRPSTSMSADGPFNLYNAVVTAADKASANRGVLVVMNDTVLDGRDVTKTNTTDVATFKSVNYGPLGYIHNGKIDYQRTPARKHTSDTPFDVSKLNELPKVGIVYNYANASDLPAKALVDAGYDGIVSAGVGNGNLYKSVFDTLATAAKTGTAVVRSSRVPTGATTQDAEVDDAKYGFVASGTLNPQKARVLLQLALTQTKDPQQIQQIFNQY"}},
  "key": {"Bacillus cereus": {"system": "Bacillus cereus", "test": "Growth inhibition of Bacillus cereus", "assay_type": "cell-based"}, "Proteus vulgaris": {"system": "Proteus vulgaris", "test": "Growth inhibition of Proteus vulgaris", "assay_type": "cell-based"}, "F. nucleatum": {"system": "F. nucleatum", "test": "Hemagglutination assay of periodontopathogens, F. nucleatum", "assay_type": "cell-based, Fusobacterium nucleatum", "set-up": "key: + Hemagglutination; − No hemagglutination", "conditions": "sheep blood, polyphenol oxidase 90 U/ml or asparaginase 20 U/ml, 90 min", "description": "The hemagglutinations were carried out in 96 microwell (Nunc) plates in which 50 μl of 1% suspension of sheep blood and 50 μl of serially diluted cells suspension in phosphate buffered (10 mM Na2HPO4, 10 mM KH2PO4, 150 mM NaCl, 3 mM KCl) were added. The cells were adjusted at 1.4 OD at 540 nm. All the strains were treated in NaCl-free buffer with polyphenol oxidase (90 U/ml) or asparaginase (20 U/ml) for 90 min at 37° C. before hemagglutination."}, "[1]": {"system": "E. coli possessing type 1 fimbriae", "test": "Adhesion of E. coli to a mannose receptor", "assay_type": "cell-based", "conditions": "E. coli treated with asparaginase versus untreated cells", "description": "Materials and methods were generally as described in the Examples above, but modified for observing adhesion by E. coli to a mannose receptor. […] The E. coli were then incubated with a source of mannose receptor."}, "Salmonella enteritidis": {"system": "Salmonella enteritidis", "test": "Hemagglutination of horse red blood cells by Salmonella enteritidis", "assay_type": "cell-based", "set-up": "key: + Hemagglutination; − No hemagglutination", "conditions": "2 hr incubation, polyphenol oxidase 70 U/ml, asparaginase 65 U/ml", "description": "Three Salmonella enteritidis clinical isolate strains, SE 79, SE 89-8312 and SE S1-072-Z were used. The bacterial strains were grown statically in brain heart infusion (BHI) broth for 48 h at 37° C. The cells were harvested by centrifugation and washed twice in 10 mM phosphate buffer (PB) pH 7.5. The final bacterial pellet was then suspended in the same buffer to the desired density.\nBacterial suspensions OD 1.0 (5 ml each) were mixed in the absence and presence of polyphenol oxidase (70 U/ml) or asparaginase (65 U/ml) and incubated statically at 37° C. for 2 h. The cells were then centrifuged and washed 2 times with PB (pH 7.5) and were suspended at a final volume 125 μl. These cells were subjected to hemagglutination tests.\nFor hemagglutination studies, red blood cells from horse were used. The red blood cells were washed with PBS (pH 7.5) by low speed centrifugation 10 min and suspended to 2% in the same buffer."}, "S. pyogenes [2]": {"system": "S. pyogenes", "test": "Adhesion of S. pyogenes to buccal epithelial cells (coaggregation slides)", "assay_type": "cell-based, Streptococcus pyogenes", "description": "This experiment began with growing and harvesting of five strains of S. pyogenes, including M14 Lowe, YL3, M24 and T2/MR. The strains were grown in BHI broth in a 37 degree incubator overnight. The cultures were grown under static conditions. The cells were then harvested by washing twice with phosphate buffer (pH=7). Treatment of the cells with polyphenol oxidase and asparaginase began with finding the optical density of the stock solution of harvested cells. This was done using a spectrophotometer. Each strain was treated with two concentrations of polyphenol oxidase (100 μg/OD and 300 μg/OD) and one concentration of asparaginase (300 μg/OD). The treatment of the cells with polyphenol oxidase took place in the 37 degree incubator for 1.5 hours. The cells were then washed twice with phosphate buffer (pH 7). At this time, a coaggregation was made and allowed to set at static conditions for two hours. Slides were then made of each coaggregation.\nThe treatment of the cells with asparaginase also took place in the 37 degree incubator for three hours. Before treatment, the cells were washed twice with phosphate buffer of pH=8. After treatment, they were washed twice with phosphate buffer of pH=7. Coaggregations and slides were then made as for polyphenol oxidase.\nThe buccal cells were harvested from the inner cheeks using cotton swabs. […]"}, "[3]": {"system": "S. epidermidis (clinical isolate)", "test": "Collagen binding assay, S. epidermidis", "assay_type": "cell-based", "conditions": "untreated 0.09", "description": "Wells were filled with 1 mg/ml soluble collagen overnight at 4° C. Control wells were coated with 1% BSA. The protein solutions were removed and permitted to stand at 37° C. for 1 h. A solution of 2% BSA was added to the wells to block unoccupied sites and prevent non-specific binding of bacteria. After 30 min, BSA was removed and the wells were washed once with distilled water. Finally, the bacterial suspensions (100 μl, OD 1.4) were added to the plates and incubated at 37° C. for 2 h. Unbound bacteria were removed by washing the wells three times with PBS containing 0.01% Tween 20. The wells were dried at 37° C. for 30 min and stained with crystal violet for 15 min. Wells were rinsed with distilled water and dried at 37° C. for 2 h. After adding 100 μl of 95% (v/v) ethanol to each well the plates were then shaken to release the stain and a reading of 550 nm was carried out."}, "S. pyogenes [4]": {"system": "S. pyogenes", "test": "Fibronectin binding assay, S. pyogenes", "assay_type": "cell-based", "conditions": "polyphenol oxidase 80 U/ml, asparaginase 20 U/ml", "description": "Wells were filled with human serum fibronectin (50 μg/ml) diluted in carbonate buffer (50 mM Na2CO3—NaHCO3, pH 9.5 overnight). Controls were coated with 1% BSA. The wells were washed three times with PBS and incubated with PBS-Tween (0.5% Tween 20 and 0.05% NaN3) 1 h at 37° C. After attachment, the wells were washed three times with PBS-Tween and allowed to dry. Subsequent assays were as described hereinabove."}, "[5]": {"system": "A. naeslundii ATCC 12104 (adhesin) / Capnocytophaga ochracea (receptor)", "test": "Coaggregation A. naeslundii ATCC 12104 / Capnocytophaga ochracea", "conditions": "A. naeslundii ATCC 12104 (adhesin) enzyme treated; polyphenol oxidase 90 U/ml, asparaginase 20 U/ml", "quoted_text": "S. sanguis 10556, A. naeslundii strains 12104 and T14V and E. coli were grown static cultures in Todd-Hewitt broth (BBL Microbiology Systems, Cockeysville, Md.). P. gingivalis W50, A. actinomycetemcomitans and C. ochracea were grown in brain heart infusion broth (BBL). F. nucleatum 22586 and P. intermedia 25611 were grown in modified Schaedler broth (BBL). All oral species except S. sanguis 10556 were incubated at 37° C. as static cultures under an anaerobic atmosphere containing H2, CO2 and N2(10:10:80) with GasPaks (BBL). S. sanguis was incubated at 37° C. as static cultures in 5% CO2.\nBacteria were harvested in the mid to late exponential growth phase by centrifugation (10,000×g for 10 min at 4° C.). The cells were washed twice in coaggregation buffer (30 mM 3-[N-morpholino]propanesulfonic acid (MOPS), pH 7.0) and adjusted to an optical density of 0.6-0.8 at 540 nm (1-cm path). […]\nCoaggregation was assessed by turbidity changes. Following mixing of the cells for 10 s on a Vortex mixer, absorbance readings were made every 30 min. The percentage of coaggregation was calculated from the following formula: Percent coaggregation=[OD540(A)+OD540(B)−OD540(A+B)]/(OD540(A)+OD540(B)), where A is the control containing cells of one strain, B is the control containing cells of the other strain, and A+B is the reaction mixture containing both cells. […]"}},
  "data": [
    {"molecule": "B1", "values": [
      {"measurement": "inhibition of growth of Bacillus cereus", "setting": "Bacillus cereus", "result": "did not significantly inhibit growth"},
      {"measurement": "inhibition of growth of Proteus vulgaris", "setting": "Proteus vulgaris", "result": "did not significantly inhibit growth"},
      {"measurement": "Hemagglutination", "setting": "F. nucleatum; dilution 1/2", "result": "+"},
      {"measurement": "Hemagglutination", "setting": "F. nucleatum; dilution 1/8", "result": "+"},
      {"measurement": "Hemagglutination", "setting": "F. nucleatum; dilution 1/16", "result": "+"},
      {"measurement": "Hemagglutination", "setting": "F. nucleatum; dilution 1/32", "result": "+"},
      {"measurement": "Hemagglutination", "setting": "F. nucleatum; dilution 1/64", "result": "+"},
      {"measurement": "Hemagglutination", "setting": "F. nucleatum; dilution 1/128", "result": "−"},
      {"measurement": "Hemagglutination", "setting": "F. nucleatum; dilution 1/256", "result": "−"},
      {"measurement": "Hemagglutination", "setting": "F. nucleatum; dilution 1/512", "result": "−"},
      {"measurement": "binding to the mannose receptor", "setting": "[1]", "result": "reduced binding"},
      {"measurement": "Hemagglutination", "setting": "Salmonella enteritidis; SE 79, dilution 1/1", "result": "+"},
      {"measurement": "Hemagglutination", "setting": "Salmonella enteritidis; SE 79, dilution 1/2", "result": "−"},
      {"measurement": "Hemagglutination", "setting": "Salmonella enteritidis; SE 79, dilution 1/4", "result": "−"},
      {"measurement": "Hemagglutination", "setting": "Salmonella enteritidis; SE 79, dilution 1/8", "result": "−"},
      {"measurement": "Hemagglutination", "setting": "Salmonella enteritidis; SE 79, dilution 1/16", "result": "−"},
      {"measurement": "Hemagglutination", "setting": "Salmonella enteritidis; SE 79, dilution 1/32", "result": "−"},
      {"measurement": "Hemagglutination", "setting": "Salmonella enteritidis; SE 79, dilution 1/64", "result": "−"},
      {"measurement": "Hemagglutination", "setting": "Salmonella enteritidis; SE 79, dilution 1/128", "result": "−"},
      {"measurement": "Hemagglutination", "setting": "Salmonella enteritidis; SE 89-8312, dilution 1/1", "result": "−"},
      {"measurement": "Hemagglutination", "setting": "Salmonella enteritidis; SE 89-8312, dilution 1/2", "result": "−"},
      {"measurement": "Hemagglutination", "setting": "Salmonella enteritidis; SE 89-8312, dilution 1/4", "result": "−"},
      {"measurement": "Hemagglutination", "setting": "Salmonella enteritidis; SE 89-8312, dilution 1/8", "result": "−"},
      {"measurement": "Hemagglutination", "setting": "Salmonella enteritidis; SE 89-8312, dilution 1/16", "result": "−"},
      {"measurement": "Hemagglutination", "setting": "Salmonella enteritidis; SE 89-8312, dilution 1/32", "result": "−"},
      {"measurement": "Hemagglutination", "setting": "Salmonella enteritidis; SE 89-8312, dilution 1/64", "result": "−"},
      {"measurement": "Hemagglutination", "setting": "Salmonella enteritidis; SE 89-8312, dilution 1/128", "result": "−"},
      {"measurement": "Hemagglutination", "setting": "Salmonella enteritidis; SES1-0072-Z, dilution 1/1", "result": "+"},
      {"measurement": "Hemagglutination", "setting": "Salmonella enteritidis; SES1-0072-Z, dilution 1/2", "result": "−"},
      {"measurement": "Hemagglutination", "setting": "Salmonella enteritidis; SES1-0072-Z, dilution 1/4", "result": "−"},
      {"measurement": "Hemagglutination", "setting": "Salmonella enteritidis; SES1-0072-Z, dilution 1/8", "result": "−"},
      {"measurement": "Hemagglutination", "setting": "Salmonella enteritidis; SES1-0072-Z, dilution 1/16", "result": "−"},
      {"measurement": "Hemagglutination", "setting": "Salmonella enteritidis; SES1-0072-Z, dilution 1/32", "result": "−"},
      {"measurement": "Hemagglutination", "setting": "Salmonella enteritidis; SES1-0072-Z, dilution 1/64", "result": "−"},
      {"measurement": "Hemagglutination", "setting": "Salmonella enteritidis; SES1-0072-Z, dilution 1/128", "result": "−"},
      {"measurement": "binding of bacteria to buccal cells", "setting": "S. pyogenes [2]; asparaginase 300 μg/OD, three hours", "result": "reduced binding"},
      {"measurement": "reduction in adhesion compared with polyphenol oxidase", "setting": "S. pyogenes [2]; equivalent amount", "result": "greater reduction in adhesion than an equivalent amount of polyphenol oxidase"},
      {"measurement": "Absorbance (collagen)", "setting": "[3]", "result": 0.05},
      {"measurement": "Absorbance (fibronectin)", "setting": "S. pyogenes [4]; S. pyogenes M4, untreated 0.32", "result": 0.15},
      {"measurement": "Absorbance (fibronectin)", "setting": "S. pyogenes [4]; S. pyogenes M24, untreated 0.33", "result": 0.21},
      {"measurement": "Inhibition % of coaggregation", "setting": "[5]", "result": 25, "unit": "%"}
    ]}
  ]
}
